Assay results from US20040043378A1 (published 2004).

What was measured:
[1] = target: T1, Tat AcK28 peptide TNCYCK-AcK-CCFH (SEQ ID NO:58) (Human Immunodeficiency Virus type 1); assay: NMR 2D 1H-15N HSQC titration; 'binds weakly'
T1 construct: Synthetic peptide

[2] = target: Tat AcK50 peptide SYGR-AcK-[…] (SEQ ID NO:50) (Human Immunodeficiency Virus type 1); assay: NMR 2D 1H-15N HSQC titration; 'interacts strongly'
[3] = target: T2, P/CAF (p300/CBP-associated factor), HA-tagged, expressed in cells (human, UniProt Q92831 1-832); assay: interaction in cells, western blot (FLAG-Tat, HA-P/CAF)
T2 construct: also called HA-P/CAF

B1: bromodomain of P/CAF (residues 719-832 of SEQ ID NO:2) (other)
chain: SKEPRDPDQLYSTLKSILQQVKSHQSAWPFMEPVKRTEAPGYYEVIRFPMDLKTMSERLKNRYYVSKKLFMADLQRVFTNCKEYNAAESEYYKCANILEKFFFSKIKEAGLIDK
notes: also called P/CAF bromodomain; the bromodomain
Kd [1]: < 300 µM | Kd [2]: ~20 µM

B2: Tat K50R/K51R mutant protein, FLAG-tagged, expressed in cells (other)
chain: MEPVDPRLEPWKHPGSQPKTASNNCYCKRCCLHCQVCFTKKGLGISYGRRRRRQRRRAPQDSKTHQVSLSKQPASQPRGDPTGPKESKKKVERETETDPED
notes: also called Tat-RR; Tat double mutant containing K50R/K51R
binding result [3]: no binding
